PMC3720700, “Structure of the SCAN Domain of Human Paternally Expressed Gene 3 Protein” (PLoS ONE, 2013)

B1: SCAN domain of human paternally expressed gene 3 protein (PEG3), amino acids 40-130 (domain or fragment)
chain: GHMTDSEFFHQRFRNLIYVEFVGPRKTLIKLRNLCLDWLQPETRTKEEIIELLVLEQYLTIIPEKLKPWVRAKKPENCEKLVTLLENYKEMYQP
notes: three non-native residues (Gly-His-Met) left at the N-terminus after TEV digestion; SCAN domain of human PEG3, amino acids 40-130 of UniProt Q9GZU2; theoretical mass of the construct 11,434 Da; Homodimer by gel filtration and in the crystal; The gene was synthetic (GenScript), in a modified pET15b vector; also called PEG3-SCAN; PEG3-SCAN domain; source: E. coli Bl21 (DE3) Gold, purified (HisTrap, …)
B2: human Siah1 without the RING domain (amino acids 91-282) (domain or fragment, UniProt Q8IUQ4 91-282, looked up)
chain: ANSVLFPCKYASSGCEITLPHTEKADHEELCEFRPYSCPCPGASCKWQGSLDAVMPHLMHQHKSITTLQGEDIVFLATDINLPGAVDWVMMQSCFGFHFMLVLEKQEKYDGHQQFFAIVQLIGTRKQAENFAYRLELNGHRRRLTWEATPRSIHEGIATAIMNSDCLVFDTSIAQLFAENGNLGINVTISMC
notes: human Siah1 without the RING domain, amino acids 91-282 of UniProt Q8IUQ4 (the results say residues 90-282); theoretical mass of a monomer 21,897 Da; The 15N-labelled form was used in the NMR experiment and the unlabelled form in gel filtration; it says only 'a similar protocol to that for PEG3-SCAN'; also called E3 ubiquitin-protein ligase Siah1; 15N-labeled Siah1; source: E. coli, purified by a …

Target: the molecule itself
Assay: SEC; gel filtration of the single purified protein, Superdex 75 16/60 calibrated with molecular weight standards; 50 mM Tris-HCl pH 7.5, 150 mM NaCl

| Protein | stoichiometry N |
| --- | --- |
| B1 | 2 |
| B2 | 2 |
